According to patent US20220228157A1, “GENE EDITING IN DIVERSE BACTERIA” (priority 2019, published 2022):

B1: PapRecT: SSAP from Pseudomonas aeruginosa, SEQ ID NO: 24, UniParc ID: UPI0001E9E6CB (protein, listed as Pseudomonas aeruginosa)
chain: MGTALTPLLTKFATRYEMGTTPEEVANTLKQTCFKGQVNDSQMVALLIVADQYKLNPFTKELYAFPDKNNGIVPVVGVDGWARIINENPQFDGMEFSMDQQGTECTCKIYRKDRSHAISATEYMAECKRNTQPWQSHPRRMLRHKAMIQCARLAFGFAGIYDQDEAERIVERDVTPAEQYEDVSEAICLIKDSPTMEDLQAAFSNAWKAYKTKGARDQLTAAKDQRKKELLDAPIDVEFEETGDDRAA
B2: CspRecT: RecT SSAP (UniParc ID: UPI0001837D7F) from a phage of Collinsella stercoris (protein)
chain: MNQIVKFTDDSGLAVQVTPDDVRRYICENATEKEVGLFLQLCQTQRLNPFVKDAYLVKYGGAPASMITSYQVFNRRACRDANYDGIKSGVVVLRDGDVVHKRGAACYKKAGEELIGGWAEVRFKDGRETAYAEVALDDYSTGKSNWAKMPGVMIEKCAKAAAWRLAFPDTFQGMYAAEEMDQAQQPEQVRAQAEQPVDLQPIRELFKPYCEHFGITPAEGMTAVCGAVGAEGMHSMTEQQARRARAWMEEEMAAPAVEAEYEVVDEGEVF
modifications: Collinsella stercoris DSM 13279
B3: Redβ: Redβ SSAP from Enterobacteria phage λ, SEQ ID NO: 474 (protein)
chain: MSTALATLAGKLAERVGMDSVDPQELITTLRQTAFKCDASDAQFIALLIVANQYGLNPWTKEIYAFPDKQNGIVPVVGVDGWSRIINENQQFDGMDFEQDNESCTCRIYRKDRNHPICVTEWMDECRREPFKTREGREITGPWQSHPKRMLRHKAMIQCARLAFGFAGIYDKDEAERIVENTAYTAERQPERDITPVNDETMQEINTLLIALDKTWDDDLLPLCSQIFRRDIRASSELTQAEAVKALGFLKQKATEQKVAA
modifications: Bacteriophage Lambda

Legend:
E. coli MG1655 = assay: Single-cycle multiplex genome editing with oligo pools, read out by NGS; type: cell-based, Escherichia coli; settings: for Average editing efficiency at all loci: 19 simultaneous edits
Experimental: CspRecT was then tested at a variety of more complex genome editing tasks. For longer strings of consecutive mismatches, which are lower efficiency events, CspRecT was again about twice as efficient as Redβ. […] To further investigate the performance of CspRecT at complex, highly multiplexed genome editing tasks, a set of 20 oligos spaced evenly around the E. coli genome was designed, each of which incorporates a single-nucleotide synonymous mutation at a non-essential gene. Next, while expressing Redβ, PapRecT, and CspRecT separately from the corresponding pORTMAGE plasmid, a single cycle of genome editing was performed with equimolar pools of 1, 5, 10, 15, and 20 oligos and assayed editing efficiency at each locus by PCR amplification coupled to targeted next generation sequencing (NGS). […] For instance, when making 19 simultaneous edits (one oligo from the pool of 20 could not be read out due to inconsistencies in allelic amplification), CspRecT averaged 5.1% editing efficiency at all loci, whereas Redβ and PapRecT averaged only 0.40% and 0.43%. Importantly, despite keeping total oligo concentration fixed across all pools, aggregate editing efficiency increased as more oligos were present in each pool. For instance, when using CspRecT with a 19-oligo pool, aggregate editing efficiency was nearly 100%, implying that across the total recovered population of E. coli there averaged one edit per cell.
To measure single locus editing, a recombineering cycle was run with an oligo that confers a single base pair non-coding mismatch in a non-essential gene. The allele was then amplified by PCR and editing efficiency was measured by NGS as described above. To test multiplex editing, the concentration of oligo was held fixed (10 μM in the final electroporation mixture), but the total number of oligos in the mixture was varied. Pools of oligos to test editing at 5, 10, 15, or 20 alleles simultaneously were designed so as to space the edits relatively evenly around the genome. The 5-oligo pool contained oligo #'s 3,7,11,15,17, the 10-oligo pool added oligo #'s 1,5,9,13,19, the 15-oligo pool added oligo #'s 4,8,12,16,18, and the final 20-oligo pool contained silent mismatch MAGE oligos.

[1] = test system: 90 bp oligos pre-coated with SSB; assay: Oligonucleotide annealing and quenching in vitro; type: biochemical
Source text: It was first whether two 90 bp oligos could anneal if they were pre-coated with SSB. SSBs was purified from E. coli (gram-negative), where most recombineering work has been performed, and L. lactis (gram-positive), a lactic acid bacterium phylogenetically distantly related to E. coli. […] It was next tested capacity of a phage RecT protein to overcome this SSB-mediated inhibition of annealing. Thus, Redβ, which is not broadly portable, but mediates efficient oligonucleotide annealing in E. coli, was purified. […] These preliminary results gave us an indication that while bacterial SSBs inhibit oligonucleotide annealing in vitro, RecTs overcome the inhibitory effect in an SSB-specific manner.
Fluorescent (tolC-r.null.mut-3′FAM) and quenching (tolC-f.null.mut-5′IBFQ) oligos were ordered from Integrated DNA Technologies. Unless otherwise indicated, 50 nM of each oligo was incubated in 25 mM TRIS-HCl pH 7.4 with 1.0 μM Ec_SSB or Ll_SSB at 30° C. for 30 minutes. 100 μl of each oligo mixture were then combined into a 96-well clear-bottom black assay plate (Costar), incubated a further 60 minutes at 30° C., and annealing was tracked on a Synergy H4 microplate reader (BioTek) with fluorescence excitation set to 495 nm and emission set to 520 nm. After 60 minutes, 20 μl of a solution with or without 25 μM Redβ and containing 100 mM MgCl2 was added to achieve a final reaction concentration of 2.5 μM Redβ and 10 mM MgCl2. The annealing was then tracked over 10 hours in a the Synergy H4 microplate reader with the setting indicated above.

E. coli = assay: lacZ recombineering assay (blue/white screening); type: cell-based, Escherichia coli; settings: for Editing efficiency, 18-bp consecutive mismatches into lacZ / Editing efficiency, 30-bp consecutive mismatches into lacZ: wild type E. coli MG1655
Experimental: Top individual SSAPs (SEQ ID NO: 157 and SEQ ID NO: 24, using Redβ as a control) were expressed in E. coli from a lambda pL promoter. The mutational profile of edits are shown in FIG. 5, including the efficiency of introducing 18-nucleotide (NT) and 30-NT mismatches. Efficiency was measured by disruption of LacZ, plating on X-gal, and counting the number of blue vs. white colonies. In contrast to FIG. 1A, a high over-performance by the SSAP (SEQ ID NO: 157) alone was observed when it was driven off of a more efficient promoter.
To maximize the phylogenetic reach and applicability of these new tools, CspRecT was characterized, alongside Redβ and PapRecT, subcloned into the pORTMAGE plasmid system (FIGS. 10A-10B, Addgene accession: #120418). This plasmid contains a broad-host RSF1010 origin of replication, establishes tight regulation of protein expression with an m-toluic-acid inducible expression system, and disables MMR by transient overexpression of a dominant-negative mutant of E. coli MutL (MutL E32K) (Nyerges et al., Proc. Natl. Acad. Sci. U.S.A. 113, 2502-2507 (2016)), which makes it possible to establish high-efficiency editing without modification of the host genome. […] This pORTMAGE plasmid expressing CspRecT was referred to as pORTMAGE-Ec1 (Addgene).
Oligos were designed to introduce I) premature STOP codons into lacZ for E. coli, K. pneumoniae, and C. freundii, or II) RpsL K43→R; GyrA T83→I; ParC S83→L; RpoB D521→V, or a premature STOP codon into nfxB for P. aeruginosa. Oligo-mediated recombineering was performed as described above on all bacterial strains. After recovery overnight, cells were plated at empirically-determined dilutions to a density of 200-500 colonies per plate. In the case of LacZ screening, plating was assayed on MacConkey agar plates or on X-Gal/IPTG LB^L agar plates in the case of K. pneumoniae. In the case of selective antibiotic screening, cultures were plated onto both selective and non-selective plates. Selective antibiotic concentrations used were the same as those described for the selective testing above, except that in P. aeruginosa 100 μg/ml STR and 1.5 μg/ml CIP were used unless otherwise noted. Variants that were resistant to multiple antibiotics were selected on LB^L agar plates that contained the combination of all corresponding antibiotics. Non-selective plates were antibiotic-free LB^L agar plates. In all cases, allelic-replacement frequencies were calculated by dividing the number of recombinant CFUs by the number of total CFUs. Plasmid maintenance was ensured by supplementing all media and agar plates with either KAN (50 μg/ml) or GEN (20 μg/ml). Minimum Inhibitory Concentration (MIC) Measurement in P. aeruginosa

[2] = wild-type E. coli MG1655, pORTMAGE plasmid

Molecule	Average editing efficiency at all loci (E. coli MG1655) [%]	Annealing kinetics in vitro [1]	Aggregate editing efficiency (E. coli MG1655; 19-oligo pool) [%]	Editing efficiency relative to other SSAPs (E. coli; E. coli, lambda pL promoter)	Editing efficiency, 18-bp consecutive mismatches into lacZ (E. coli) [%]	Editing efficiency, 30-bp consecutive mismatches into lacZ (E. coli) [%]	Editing efficiency, average over single-base mismatches (E. coli; [2]) [%]	Editing efficiency, various single-base mismatches (E. coli; [2])	Ability to overcome SSB-mediated inhibition of annealing [1]
B1	0.43	improved annealing kinetics in vitro	–	–	–	–	–	–	–
B2	5.1	–	~100	about double the efficiency of Redβ or SSAP SEQ ID NO: 24	6	3	43	35-51%	–
B3	0.40	–	–	–	3	1	–	–	overcame the inhibitory effect of EcSSB but not L1SSB
